Experimental data: paper PMC4787834

How the values were obtained:
MsmUdgX F4 = target: T1, MsmUdgX F4 (Mycobacterium smegmatis mc2 155, UniProt A0QP43 1-209, Q53A); test: 8 M urea-PAGE complex shift
T1 sequence: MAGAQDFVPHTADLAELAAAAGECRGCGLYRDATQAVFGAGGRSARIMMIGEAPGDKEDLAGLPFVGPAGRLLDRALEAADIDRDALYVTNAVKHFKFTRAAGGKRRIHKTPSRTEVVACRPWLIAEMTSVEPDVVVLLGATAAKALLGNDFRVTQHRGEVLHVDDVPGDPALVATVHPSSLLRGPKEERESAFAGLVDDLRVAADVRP

MsmUdgX [1] = target: T2, MsmUdgX (Mycobacterium smegmatis mc2 155, UniProt A0QP43 1-209); test: 8 M urea-PAGE complex shift
T2 sequence: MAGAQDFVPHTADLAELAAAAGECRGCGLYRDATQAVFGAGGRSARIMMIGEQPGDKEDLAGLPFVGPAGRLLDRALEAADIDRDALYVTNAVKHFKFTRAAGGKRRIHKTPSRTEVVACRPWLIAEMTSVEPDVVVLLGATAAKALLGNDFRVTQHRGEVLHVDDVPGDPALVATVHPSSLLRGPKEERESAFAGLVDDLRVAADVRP

MsmUdgX [2] = target: T2, MsmUdgX; test: SDS-PAGE complex shift

Binder | binding result (MsmUdgX F4) | binding result (MsmUdgX [1]) | binding result (MsmUdgX [2])
CTCAAGTGUAGGCATGCAAGAGCT (ssDNA, deoxyuridine at position 9) [SSU9] | binds | binds | 
SSU9:G (dsDNA, deoxyuridine at position 9 opposite G) DNA 1: CTCAAGTGUAGGCATGCAAGAGCT DNA 2: CTTGCATGCCTGCACTTGAGTGCA |  | binds | 
TUTT (ssDNA, deoxyuridine at position 2; 5' phosphate) [pTUTT] |  |  | binds
